The source of these data is publication PMC12527917, “Regulation of kinesin-2 motility by its β-hairpin motif” (Nature Structural & Molecular Biology, 2025).

B1: Kif3B^ΔC156 (domain or fragment, human, UniProt O15066 1-591, looked up)
chain: MSKLKSSESVRVVVRCRPMNGKEKAASYDKVVDVDVKLGQVSVKNPKGTAHEMPKTFTFDAVYDWNAKQFELYDETFRPLVDSVLQGFNGTIFAYGQTGTGKTYTMEGIRGDPEKRGVIPNSFDHIFTHISRSQNQQYLVRASYLEIYQEEIRDLLSKDQTKRLELKERPDTGVYVKDLSSFVTKSVKEIEHVMNVGNQNRSVGATNMNEHSSRSHAIFVITIECSEVGLDGENHIRVGKLNLVDLAGSERQAKTGAQGERLKEATKINLSLSALGNVISALVDGKSTHIPYRDSKLTRLLQDSLGGNAKTVMVANVGPASYNVEETLTTLRYANRAKNIKNKPRVNEDPKDALLREFQEEIARLKAQLEKRSIGRRKRREKRREGGGSGGGGEEEEEEGEEGEEEGDDKDDYWREQQEKLEIEKRAIVEDHSLVAEEKMRLLKEKEKKMEDLRREKDAAEMLGAKIKAMESKLLVGGKNIVDHTNEQQKILEQKRQEIAEQKRREREIQQQMESRDEETLELKETYSSLQQEVDIKTKKLKKLFSKLQAVKAEIHDLQEEHIKERQELEQTQNELTRELKLKHLIIENFI
notes: Kif3B, human, 156 amino acids truncated from the C terminus (removes the Kif3B β-hairpin motif); also called Kif3B^Δ156; source: Sf9 (baculovirus), coexpressed with Kif3A^ΔC103, purified (IgG Sepharose, TEV elution, SEC); not shown: ZZ, N-terminal, cleaved
B2: Kap3 (human) (natural protein, UniProt Q92845 1-792, looked up)
chain: MQGEDARYLKRKVKGGNIDVHPSEKALIVHYEVEATILGEMGDPMLGERKECQKIIRLKSLNANTDITSLARKVVEECKLIHPSKLNEVEQLLYYLQNRRDSLSGKEKKEKSSKPKDPPPFEGMEIDEVANINDMDEYIELLYEDIPDKVRGSALILQLARNPDNLEELLLNETALGALARVLREDWKQSVELATNIIYIFFCFSSFSQFHGLITHYKIGALCMNIIDHELKRHELWQEELSKKKKAVDEDPENQTLRKDYEKTFKKYQGLVVKQEQLLRVALYLLLNLAEDTRTELKMRNKNIVHMLVKALDRDNFELLILVVSFLKKLSIFMENKNDMVEMDIVEKLVKMIPCEHEDLLNITLRLLLNLSFDTGLRNKMVQVGLLPKLTALLGNDNYKQIAMCVLYHISMDDRFKSMFAYTDCIPQLMKMLFECSDERIDLELISFCINLAANKRNVQLICEGNGLKMLMKRALKFKDPLLMKMIRNISQHDGPTKNLFIDYVGDLAAQISNDEEEEFVIECLGTLANLTIPDLDWELVLKEYKLVPYLKDKLKPGAAEDDLVLEVVIMIGTVSMDDSCAALLAKSGIIPALIELLNAQQEDDEFVCQIIYVFYQMVFHQATRDVIIKETQAPAYLIDLMHDKNNEIRKVCDNTLDIIAEYDEEWAKKIQSEKFRWHNSQWLEMVESRQMDESEQYLYGDDRIEPYIHEGDILERPDLFYNSDGLIASEGAISPDFFNDYHLQNGDVVGQHSFPGSLGMDGFGQPVGILGRPATAYGFRPDEPYYYGYGS
notes: Kap3, human, synthesised gene; SNAPf labelled with SNAP-Cell TMR-Star in the TIRF colocalisation assay; No truncation is mentioned; probably the whole protein; source: Sf9 (baculovirus), purified (IgG Sepharose, TEV elution, SEC); not shown: ZZ, N-terminal, cleaved; SNAPf, N-terminal, kept
B3: Kif3B (human kinesin-2 motor subunit), full length (natural protein, UniProt O15066 1-747, looked up)
chain: MSKLKSSESVRVVVRCRPMNGKEKAASYDKVVDVDVKLGQVSVKNPKGTAHEMPKTFTFDAVYDWNAKQFELYDETFRPLVDSVLQGFNGTIFAYGQTGTGKTYTMEGIRGDPEKRGVIPNSFDHIFTHISRSQNQQYLVRASYLEIYQEEIRDLLSKDQTKRLELKERPDTGVYVKDLSSFVTKSVKEIEHVMNVGNQNRSVGATNMNEHSSRSHAIFVITIECSEVGLDGENHIRVGKLNLVDLAGSERQAKTGAQGERLKEATKINLSLSALGNVISALVDGKSTHIPYRDSKLTRLLQDSLGGNAKTVMVANVGPASYNVEETLTTLRYANRAKNIKNKPRVNEDPKDALLREFQEEIARLKAQLEKRSIGRRKRREKRREGGGSGGGGEEEEEEGEEGEEEGDDKDDYWREQQEKLEIEKRAIVEDHSLVAEEKMRLLKEKEKKMEDLRREKDAAEMLGAKIKAMESKLLVGGKNIVDHTNEQQKILEQKRQEIAEQKRREREIQQQMESRDEETLELKETYSSLQQEVDIKTKKLKKLFSKLQAVKAEIHDLQEEHIKERQELEQTQNELTRELKLKHLIIENFIPLEEKSKIMNRAFFDEEEDHWKLHPITRLENQQMMKRPVSAVGYKRPLSQHARMSMMIRPEARYRAENIVLLELDMPSRTTRDYEGPAIAPKVQAALDAALQDEDEIQVDASSFESTANKKSKARPKSGRKSGSSSSSSGTPASQLYPQSRGLVPK
notes: Kif3B, human, synthesised gene, full-length subunit; source: Sf9 (baculovirus), coexpressed with Kif3A, purified (IgG Sepharose, TEV elution, SEC); not shown: ZZ, N-terminal, cleaved

Holding throughout (conditions): both partners purified
The target of assay [1] is T1, Kif3A^ΔC103 (human, UniProt Q9Y496 1-596).
T1 construct: Kif3A, human, 103 amino acids truncated from the C terminus; also called Kif3A^Δ103; source: Sf9 (baculovirus), coexpressed with Kif3B constructs, purified (IgG Sepharose, TEV elution, SEC); not shown: SNAPf, C-terminal, kept
In words: SEC; motor subunits coexpressed in Sf9, purified through the ZZ tag of Kif3B/C on IgG Sepharose, TEV elution, Superose 6 Increase 3.2/300 in buffer A (50 mM Tris-HCl pH 7.5, 150 mM K-acetate, 2 mM Mg-acetate, 5% glycerol, 1 mM DTT, 0.2 mM Mg-ATP); SDS-PAGE of peak fraction. (In general: In gel filtration, larger molecules generally elute earlier.)

Assay [2] concerns the target T2, Kif3A^ΔC89–Kif3B heterodimer (ΔInt1) (human, UniProt Q9Y496 1-610; O15066 1-747).
T2 construct: Kif3A, human, 89 amino acids truncated from the C terminus (within the β-hairpin motif); Kif3B, human, synthesised gene, full-length subunit; also called Kif3A^Δ89B; source: Sf9 (baculovirus), coexpressed, purified (IgG Sepharose, TEV elution, SEC); not shown: SNAPf, C-terminal, kept; ZZ, N-terminal, cleaved
In words: single-molecule TIRF colocalisation; Alexa-Fluor-647-labelled Kif3AB/C constructs on surface-attached microtubules (1 mM AMPPNP in Fig. 4c), TMR-labelled Kap3 at 1 nM, buffer B, 25 °C; fraction of Kif3A spots with Kap3 signal.

In assay [3] the target is T3, Kif3A–Kif3B^ΔC90 heterodimer (ΔInt3) (human, UniProt Q9Y496 1-699; O15066 1-657).
T3 construct: Kif3A, human, synthesised gene, full-length subunit; Kif3B, human, 90 amino acids truncated from the C terminus; source: Sf9 (baculovirus), coexpressed, purified (IgG Sepharose, TEV elution, SEC); not shown: SNAPf, C-terminal, kept; ZZ, N-terminal, cleaved
The description is as above.

Assay [4] has as its target T4, Kif3A–Kif3B^ΔC114 heterodimer (ΔInt2+3) (human, UniProt Q9Y496 1-699; O15066 1-633).
T4 construct: Kif3A, human, synthesised gene, full-length subunit; Kif3B, human, 114 amino acids truncated from the C terminus; source: Sf9 (baculovirus), coexpressed, purified (IgG Sepharose, TEV elution, SEC); not shown: SNAPf, C-terminal, kept; ZZ, N-terminal, cleaved
The description is as above.

Assay [5] addresses T5, Kif3AB heterodimer, full length (human, UniProt Q9Y496 1-699; O15066 1-747).
T5 construct: Kif3A, human, synthesised gene, full-length subunit; Kif3B, human, synthesised gene, full-length subunit; SNAPf on Kif3A labelled with Alexa Fluor 647 in the TIRF assays; A Kif3A construct without SNAPf was also cloned; also called Kif3A–Kif3B; Kif3AB^WT; source: Sf9 (baculovirus), coexpressed, purified (IgG Sepharose, TEV elution, SEC); not shown: SNAPf, C-terminal, kept; ZZ, N-terminal, cleaved
Described as above.

The target of assay [6] is B2. Described as above.

T5 sequence (Q9Y496 whole entry, one chain of several): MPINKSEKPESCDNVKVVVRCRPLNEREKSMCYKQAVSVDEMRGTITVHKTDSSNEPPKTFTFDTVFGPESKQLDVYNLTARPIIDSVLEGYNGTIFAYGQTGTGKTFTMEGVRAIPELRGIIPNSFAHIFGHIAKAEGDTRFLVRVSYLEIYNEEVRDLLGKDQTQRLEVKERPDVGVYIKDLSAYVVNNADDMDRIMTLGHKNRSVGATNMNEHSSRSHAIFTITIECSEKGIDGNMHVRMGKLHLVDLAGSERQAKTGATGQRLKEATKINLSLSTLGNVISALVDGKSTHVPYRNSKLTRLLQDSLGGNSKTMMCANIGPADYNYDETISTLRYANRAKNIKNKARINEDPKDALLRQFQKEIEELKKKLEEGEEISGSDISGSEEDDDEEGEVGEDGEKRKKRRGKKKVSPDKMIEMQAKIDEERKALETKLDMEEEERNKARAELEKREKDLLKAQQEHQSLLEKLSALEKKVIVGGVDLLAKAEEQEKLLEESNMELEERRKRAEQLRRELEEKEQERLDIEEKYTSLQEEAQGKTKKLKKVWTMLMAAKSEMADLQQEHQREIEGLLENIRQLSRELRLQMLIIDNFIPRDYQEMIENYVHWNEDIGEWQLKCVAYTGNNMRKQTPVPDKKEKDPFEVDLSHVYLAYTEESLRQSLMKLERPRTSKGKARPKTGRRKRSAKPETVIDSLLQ
T4 sequence (Q9Y496 whole entry, stated change not applied, the tested form may be a part, one chain of several): as the sequence (Q9Y496 whole entry, one chain of several) above
T3 sequence (Q9Y496 whole entry, stated change not applied, the tested form may be a part, one chain of several): as the sequence (Q9Y496 whole entry, one chain of several) above
T1 sequence (Q9Y496 1-596, stated change not applied): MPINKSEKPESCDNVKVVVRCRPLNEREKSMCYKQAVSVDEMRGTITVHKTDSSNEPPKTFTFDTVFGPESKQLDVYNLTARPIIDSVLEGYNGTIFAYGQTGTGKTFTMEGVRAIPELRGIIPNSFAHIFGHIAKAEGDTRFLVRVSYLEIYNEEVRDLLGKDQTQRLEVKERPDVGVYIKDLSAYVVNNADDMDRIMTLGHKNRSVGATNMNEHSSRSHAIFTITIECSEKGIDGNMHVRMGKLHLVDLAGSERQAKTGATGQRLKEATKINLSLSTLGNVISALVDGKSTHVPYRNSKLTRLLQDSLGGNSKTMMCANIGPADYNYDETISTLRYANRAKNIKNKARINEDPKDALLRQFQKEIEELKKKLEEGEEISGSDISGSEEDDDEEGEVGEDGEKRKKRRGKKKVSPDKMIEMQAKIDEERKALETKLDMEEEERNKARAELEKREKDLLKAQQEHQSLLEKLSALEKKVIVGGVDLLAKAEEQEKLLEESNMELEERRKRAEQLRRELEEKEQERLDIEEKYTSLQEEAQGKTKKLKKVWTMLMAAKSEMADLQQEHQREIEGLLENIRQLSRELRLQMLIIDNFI
T2 sequence (Q9Y496 1-610, stated change not applied, one chain of several): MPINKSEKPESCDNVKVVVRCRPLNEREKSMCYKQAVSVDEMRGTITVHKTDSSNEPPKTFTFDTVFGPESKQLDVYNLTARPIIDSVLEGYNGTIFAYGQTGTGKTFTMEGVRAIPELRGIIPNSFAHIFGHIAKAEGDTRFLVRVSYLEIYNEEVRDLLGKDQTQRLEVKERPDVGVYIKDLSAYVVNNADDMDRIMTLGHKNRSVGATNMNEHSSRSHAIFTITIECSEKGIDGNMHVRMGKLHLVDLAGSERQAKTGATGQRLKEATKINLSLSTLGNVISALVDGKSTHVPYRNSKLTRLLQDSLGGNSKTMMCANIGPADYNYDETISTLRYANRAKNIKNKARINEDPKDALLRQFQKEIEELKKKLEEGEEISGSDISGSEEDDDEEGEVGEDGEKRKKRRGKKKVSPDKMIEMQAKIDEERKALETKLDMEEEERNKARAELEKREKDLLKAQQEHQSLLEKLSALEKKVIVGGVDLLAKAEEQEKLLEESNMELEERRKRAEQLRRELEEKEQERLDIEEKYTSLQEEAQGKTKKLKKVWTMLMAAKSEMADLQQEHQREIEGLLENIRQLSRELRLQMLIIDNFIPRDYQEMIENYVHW

For the molecule B1, the binding result in assay [1] is “binds”.

Turning to B2, the “percent of Kif3AB molecules with colocalised Kap3” value turned out to be 26% in assay [2], 62% in assay [3], 50% in assay [4] and 82% in assay [5].

On to B3, for which the binding result in assay [6] was “binds”.
